The chains are these.
B1: LINE1-full (parent)
chain: UACGUAGGUGGUUUUCCCCUGAUAGUGCUAAGGGGGCCUGGAAGUUUGGACUGGGCAGAGCUCAACACAGCGUGGCAAAGUGGCUGUGGCUAGACUGCCUCUCUGGAUUCCUCGUCACUCAGCAGGGCAUCUCUGAGAGAAAUGCC

The data set covers variants of B1. Description: self-cleavage, relative activity (ratio to wild type); higher = more cleavage; in vitro, sequencing; the parent is a self-cleaving ribozyme.
Consider UACGUAGGUGGUUUUCCCCUGAUAGUGCUAAGGGGGCCUGGAAGUUUGGACUGGGCAGAGCUCAACACAGCGUGGCAAAGUGGCUGUGGCUAGACUGCCUCUCUGGAUUCCUCGUCACUCAGCAGGGCAUCCCUGAGAGAUAUGCC [U132C A141U], for which the self-cleavage is 0.63.
The result for UACGUAGGUGGUUUUCCCCUGAUAGUGCUAAGGGGGCCUGGAAGUUUGGACUGGGCAGAGCUCAACACAGCGUGGCAAAGUGGCUGUGGCUAGACUGCCUCUCUGGAUUCCUCGUCACUCAGCAGGGCACCUUUGAGAGAAAUGCC [U130C C133U] reads 1.42; that for UACGUAGGUGGUUUUCCCCUGAUAGUGCUAAGGGGGCCUGGAAGUUUGGACUGGGCAGAGCUCAACACAGCGUGGCAAAGUGGCUGUGGCUAGACUGCCUCUCUGGAUUCCUCGUCACUCAGCAGGGCAUUUCUGAGGGAAAUGCC [C131U A138G], 1.36; that for UACGUAGGUGGUUUUCCCCUGAUAGUGCUAAGGGGGCCUGGAAGUUUGGACUGGGCAGAGCUCAACACAGCGUGGCAAAGUGGCUGUGGCUAGACUGCCUCUCUGGAUUCCUCGUCACUCAGCAGGGCAACUCUGAGAGAAACGCC [U130A U143C], 1.25.
The result for UACGUAGGUGGUUUUCCCCUGAUAGUGCUAAGGGGGCCUGGAAGUUUGGACUGGGCAGAGCUCAACACAGCGUGGCAAAGUGGCUGUGGCUAGACUGCCUCUCUGGAUUCCUCGUCACUCAGCAGGGCACCUCUGAGUGAAAUGCC [U130C A138U] reads 1.36; that for UACGUAGGUGGUUUUCCCCUGAUAGUGCUAAGGGGGCCUGGAAGUUUGGACUGGGCAGAGCUCAACACAGCGUGGCAAAGUGGCUGUGGCUAGACUGCCUCUCUGGAUUCCUCGUCACUCAGCAGGGCACCUCUGAGGGAAAUGCC [U130C A138G], 1.75; that for UACGUAGGUGGUUUUCCCCUGAUAGUGCUAAGGGGGCCUGGAAGUUUGGACUGGGCAGAGCUCAACACAGCGUGGCAAAGUGGCUGUGGCUAGACUGCCUCUCUGGAUUCCUCGUCACUCAGCAGGGCAUCACUGAGAAAAAUGCC [U132A G139A], 1.33.
Take UACGUAGGUGGUUUUCCCCUGAUAGUGCUAAGGGGGCCUGGAAGUUUGGACUGGGCAGAGCUCAACACAGCGUGGCAAAGUGGCUGUGGCUAGACUGCCUCUCUGGAUUCCUCGUCACUCAGCAGGGCAUCCCUGAGAGAAGUGCC [U132C A142G]: the self-cleavage was 1.49.
The result for UACGUAGGUGGUUUUCCCCUGAUAGUGCUAAGGGGGCCUGGAAGUUUGGACUGGGCAGAGCUCAACACAGCGUGGCAAAGUGGCUGUGGCUAGACUGCCUCUCUGGAUUCCUCGUCACUCAGCAGGGCAUUUCUGAGAGAAAGGCC [C131U U143G] reads 0.59; that for UACGUAGGUGGUUUUCCCCUGAUAGUGCUAAGGGGGCCUGGAAGUUUGGACUGGGCAGAGCUCAACACAGCGUGGCAAAGUGGCUGUGGCUAGACUGCCUCUCUGGAUUCCUCGUCACUCAGCAGGGCAUCACUGAGAGAUAUGCC [U132A A141U], 0.14; that for UACGUAGGUGGUUUUCCCCUGAUAGUGCUAAGGGGGCCUGGAAGUUUGGACUGGGCAGAGCUCAACACAGCGUGGCAAAGUGGCUGUGGCUAGACUGCCUCUCUGGAUUCCUCGUCACUCAGCAGGGCAUCCUUGAGAGAAAUGCC [U132C C133U], 1.4.
The figure for UACGUAGGUGGUUUUCCCCUGAUAGUGCUAAGGGGGCCUGGAAGUUUGGACUGGGCAGAGCUCAACACAGCGUGGCAAAGUGGCUGUGGCUAGACUGCCUCUCUGGAUUCCUCGUCACUCAGCAGGGCAUCCAUGAGAGAAAUGCC [U132C C133A] is 1.14; for UACGUAGGUGGUUUUCCCCUGAUAGUGCUAAGGGGGCCUGGAAGUUUGGACUGGGCAGAGCUCAACACAGCGUGGCAAAGUGGCUGUGGCUAGACUGCCUCUCUGGAUUCCUCGUCACUCAGCAGGGCAUCACUGAGAGGAAUGCC [U132A A140G] it is 1.41; for UACGUAGGUGGUUUUCCCCUGAUAGUGCUAAGGGGGCCUGGAAGUUUGGACUGGGCAGAGCUCAACACAGCGUGGCAAAGUGGCUGUGGCUAGACUGCCUCUCUGGAUUCCUCGUCACUCAGCAGGGCAUCACCGAGAGAAAUGCC [U132A U134C] it is 1.61.
The result for UACGUAGGUGGUUUUCCCCUGAUAGUGCUAAGGGGGCCUGGAAGUUUGGACUGGGCAGAGCUCAACACAGCGUGGCAAAGUGGCUGUGGCUAGACUGCCUCUCUGGAUUCCUCGUCACUCAGCAGGGCAUGUCUGAGAGAAGUGCC [C131G A142G] reads 0.36; that for UACGUAGGUGGUUUUCCCCUGAUAGUGCUAAGGGGGCCUGGAAGUUUGGACUGGGCAGAGCUCAACACAGCGUGGCAAAGUGGCUGUGGCUAGACUGCCUCUCUGGAUUCCUCGUCACUCAGCAGGGCAUCCCUGGGAGAAAUGCC [U132C A136G], 1.47; that for UACGUAGGUGGUUUUCCCCUGAUAGUGCUAAGGGGGCCUGGAAGUUUGGACUGGGCAGAGCUCAACACAGCGUGGCAAAGUGGCUGUGGCUAGACUGCCUCUCUGGAUUCCUCGUCACUCAGCAGGGCAUCCCUGUGAGAAAUGCC [U132C A136U], 1.46.
For the variant UACGUAGGUGGUUUUCCCCUGAUAGUGCUAAGGGGGCCUGGAAGUUUGGACUGGGCAGAGCUCAACACAGCGUGGCAAAGUGGCUGUGGCUAGACUGCCUCUCUGGAUUCCUCGUCACUCAGCAGGGCAUCACUGAGAGAAAUACC [U132A G144A], the self-cleavage was found to be 1.82.
The result for UACGUAGGUGGUUUUCCCCUGAUAGUGCUAAGGGGGCCUGGAAGUUUGGACUGGGCAGAGCUCAACACAGCGUGGCAAAGUGGCUGUGGCUAGACUGCCUCUCUGGAUUCCUCGUCACUCAGCAGGGCACCUCAGAGAGAAAUGCC [U130C U134A] reads 1.
The result for UACGUAGGUGGUUUUCCCCUGAUAGUGCUAAGGGGGCCUGGAAGUUUGGACUGGGCAGAGCUCAACACAGCGUGGCAAAGUGGCUGUGGCUAGACUGCCUCUCUGGAUUCCUCGUCACUCAGCAGGGCAUCCCUGAGAGAAAAGCC [U132C U143A] reads 1.35.
The result for UACGUAGGUGGUUUUCCCCUGAUAGUGCUAAGGGGGCCUGGAAGUUUGGACUGGGCAGAGCUCAACACAGCGUGGCAAAGUGGCUGUGGCUAGACUGCCUCUCUGGAUUCCUCGUCACUCAGCAGGGCAUUUCUGGGAGAAAUGCC [C131U A136G] reads 1.39; that for UACGUAGGUGGUUUUCCCCUGAUAGUGCUAAGGGGGCCUGGAAGUUUGGACUGGGCAGAGCUCAACACAGCGUGGCAAAGUGGCUGUGGCUAGACUGCCUCUCUGGAUUCCUCGUCACUCAGCAGGGCAGCUCUGAGAGAAACGCC [U130G U143C], 1.5; that for UACGUAGGUGGUUUUCCCCUGAUAGUGCUAAGGGGGCCUGGAAGUUUGGACUGGGCAGAGCUCAACACAGCGUGGCAAAGUGGCUGUGGCUAGACUGCCUCUCUGGAUUCCUCGUCACUCAGCAGGGCAUCACUGAAAGAAAUGCC [U132A G137A], 1.7.
On to UACGUAGGUGGUUUUCCCCUGAUAGUGCUAAGGGGGCCUGGAAGUUUGGACUGGGCAGAGCUCAACACAGCGUGGCAAAGUGGCUGUGGCUAGACUGCCUCUCUGGAUUCCUCGUCACUCAGCAGGGCAUUUCUGAGAGAAGUGCC [C131U A142G], for which the self-cleavage was 1.61.
Take UACGUAGGUGGUUUUCCCCUGAUAGUGCUAAGGGGGCCUGGAAGUUUGGACUGGGCAGAGCUCAACACAGCGUGGCAAAGUGGCUGUGGCUAGACUGCCUCUCUGGAUUCCUCGUCACUCAGCAGGGCAUCCCUAAGAGAAAUGCC [U132C G135A]: the self-cleavage worked out at 1.19.
The result for UACGUAGGUGGUUUUCCCCUGAUAGUGCUAAGGGGGCCUGGAAGUUUGGACUGGGCAGAGCUCAACACAGCGUGGCAAAGUGGCUGUGGCUAGACUGCCUCUCUGGAUUCCUCGUCACUCAGCAGGGCACCUCUGAGAGAGAUGCC [U130C A141G] reads 1.55.
The figure for UACGUAGGUGGUUUUCCCCUGAUAGUGCUAAGGGGGCCUGGAAGUUUGGACUGGGCAGAGCUCAACACAGCGUGGCAAAGUGGCUGUGGCUAGACUGCCUCUCUGGAUUCCUCGUCACUCAGCAGGGCAUCCCUGAGAGAAAUACC [U132C G144A] is 1.86; for UACGUAGGUGGUUUUCCCCUGAUAGUGCUAAGGGGGCCUGGAAGUUUGGACUGGGCAGAGCUCAACACAGCGUGGCAAAGUGGCUGUGGCUAGACUGCCUCUCUGGAUUCCUCGUCACUCAGCAGGGCACCUCUGAGAGAAGUGCC [U130C A142G] it is 1.37; for UACGUAGGUGGUUUUCCCCUGAUAGUGCUAAGGGGGCCUGGAAGUUUGGACUGGGCAGAGCUCAACACAGCGUGGCAAAGUGGCUGUGGCUAGACUGCCUCUCUGGAUUCCUCGUCACUCAGCAGGGCACCUCUGAGAGAAUUGCC [U130C A142U] it is 1.6.
The result for UACGUAGGUGGUUUUCCCCUGAUAGUGCUAAGGGGGCCUGGAAGUUUGGACUGGGCAGAGCUCAACACAGCGUGGCAAAGUGGCUGUGGCUAGACUGCCUCUCUGGAUUCCUCGUCACUCAGCAGGGCAUCCCAGAGAGAAAUGCC [U132C U134A] reads 0.73; that for UACGUAGGUGGUUUUCCCCUGAUAGUGCUAAGGGGGCCUGGAAGUUUGGACUGGGCAGAGCUCAACACAGCGUGGCAAAGUGGCUGUGGCUAGACUGCCUCUCUGGAUUCCUCGUCACUCAGCAGGGCAUCCCCGAGAGAAAUGCC [U132C U134C], 1.35; that for UACGUAGGUGGUUUUCCCCUGAUAGUGCUAAGGGGGCCUGGAAGUUUGGACUGGGCAGAGCUCAACACAGCGUGGCAAAGUGGCUGUGGCUAGACUGCCUCUCUGGAUUCCUCGUCACUCAGCAGGGCACCUCUGAGAGAAAUGCU [U130C C146U], 1.52.
Take UACGUAGGUGGUUUUCCCCUGAUAGUGCUAAGGGGGCCUGGAAGUUUGGACUGGGCAGAGCUCAACACAGCGUGGCAAAGUGGCUGUGGCUAGACUGCCUCUCUGGAUUCCUCGUCACUCAGCAGGGCACUUCUGAGAGAAAUGCC [U130C C131U]: the self-cleavage turned out to be 1.28.
The figure for UACGUAGGUGGUUUUCCCCUGAUAGUGCUAAGGGGGCCUGGAAGUUUGGACUGGGCAGAGCUCAACACAGCGUGGCAAAGUGGCUGUGGCUAGACUGCCUCUCUGGAUUCCUCGUCACUCAGCAGGGCACCUCUUAGAGAAAUGCC [U130C G135U] is 0.97; for UACGUAGGUGGUUUUCCCCUGAUAGUGCUAAGGGGGCCUGGAAGUUUGGACUGGGCAGAGCUCAACACAGCGUGGCAAAGUGGCUGUGGCUAGACUGCCUCUCUGGAUUCCUCGUCACUCAGCAGGGCACCUCUGAGAAAAAUGCC [U130C G139A] it is 1.5; for UACGUAGGUGGUUUUCCCCUGAUAGUGCUAAGGGGGCCUGGAAGUUUGGACUGGGCAGAGCUCAACACAGCGUGGCAAAGUGGCUGUGGCUAGACUGCCUCUCUGGAUUCCUCGUCACUCAGCAGGGCACCUCUGAGAGUAAUGCC [U130C A140U] it is 0.32.
The figure for UACGUAGGUGGUUUUCCCCUGAUAGUGCUAAGGGGGCCUGGAAGUUUGGACUGGGCAGAGCUCAACACAGCGUGGCAAAGUGGCUGUGGCUAGACUGCCUCUCUGGAUUCCUCGUCACUCAGCAGGGCACCUCUGAGAGGAAUGCC [U130C A140G] is 1.49; for UACGUAGGUGGUUUUCCCCUGAUAGUGCUAAGGGGGCCUGGAAGUUUGGACUGGGCAGAGCUCAACACAGCGUGGCAAAGUGGCUGUGGCUAGACUGCCUCUCUGGAUUCCUCGUCACUCAGCAGGGCAUAUCUAAGAGAAAUGCC [C131A G135A] it is 1.55.
The result for UACGUAGGUGGUUUUCCCCUGAUAGUGCUAAGGGGGCCUGGAAGUUUGGACUGGGCAGAGCUCAACACAGCGUGGCAAAGUGGCUGUGGCUAGACUGCCUCUCUGGAUUCCUCGUCACUCAGCAGGGCACCUCUGGGAGAAAUGCC [U130C A136G] reads 1.66.

The values are drawn from the RNAGym collection of RNA variant scans (doi:10.7554/elife.90254).
